Reference: the supplement of paper PMC10567573

B1: INTS4 (parent)
chain: TIIEPAGESDNPLRFTSGLVVALD
B2: ACBD3 (parent)
chain: YVASHKIEKEEQEKKRKEEEERRR

Variants of: B1
Assay: protein stability index of a GFP-peptide fusion (GPS, HEK-293T) (PSI 1-6); higher = more stable
Details: c terminus: a fixed tail appended
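Further: lentivirally expressed fusions sorted by FACS into six bins by GFP to DsRed ratio, PSI derived from sequencing read proportions per bin multiplied by bin number.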

| Variant | protein stability index |
| --- | --- |
| R14P | 3.4 |
| R14A | 3.63 |
| L19I | 2.71 |
| F15T | 4.3 |
| E4Y | 1.51 |
| P12L | 2.1 |
| G18Y | 1.89 |
| I3R | 3.06 |
| A6N | 2.52 |
| S9R | 2.79 |
| A22Q | 2.65 |
| L19C | 3.95 |
| L13I | 2.87 |
| F15R | 3.92 |
| P5I | 1.5 |
| F15D | 5.04 |
| L13C | 2.94 |
| L23F | 2.75 |
| V21K | 3.45 |
| S9C | 2.28 |
| S17T | 2.92 |
| A6G | 2.94 |
| S9E | 3.73 |
| A6E | 3.74 |
| G18P | 2.59 |
| V20N | 3.46 |

| Variant | protein stability index |
| --- | --- |
| L23G | 4.16 |
| A22C | 2.6 |
| A22E | 4.07 |
| N11G | 2.38 |
| E8F | 2.19 |
| L13R | 3.65 |
| P5Q | 2.49 |
| I3Y | 3.29 |
| L13A | 3.81 |
| G7M | 2.36 |
| P5Y | 1.93 |
| E4G | 2.25 |
| V21R | 3.67 |
| S9Q | 2.77 |
| G18C | 1.66 |
| A6R | 3.07 |
| G7N | 2.77 |
| D24A | 2.75 |
| V21M | 2.84 |
| E8H | 2.23 |
| G18Q | 2.7 |
| P12F | 2.41 |
| I3K | 3.85 |
| V21C | 3.48 |
| T16F | 2.35 |
| L19E | 4.34 |

| Variant | protein stability index |
| --- | --- |
| E8L | 2.37 |
| P5C | 2.56 |
| R14S | 3.63 |
| I2G | 3.51 |
| D24Y | 2.31 |
| A22S | 3.2 |
| R14F | 2.04 |
| G7Q | 3.33 |
| N11Y | 2.25 |
| S9V | 2.92 |
| L19Q | 4.05 |
| G7P | 3.04 |
| F15C | 3.87 |
| D24L | 1.73 |
| T16I | 2.21 |
| G18I | 2.4 |
| S17Q | 3.06 |
| E8G | 2.32 |
| A6V | 2.62 |
| G18R | 2.24 |
| S17K | 2.65 |
| N11C | 2.9 |
| N11D | 3.33 |
| E8A | 2.23 |
| D10G | 2.56 |
| R14M | 2.27 |

| Variant | protein stability index |
| --- | --- |
| I3F | 2.38 |
| F15H | 4.37 |
| G7A | 3.83 |
| G18K | 2.77 |
| D24H | 1.93 |
| L13F | 2.33 |
| G18M | 1.67 |
| R14C | 2.62 |
| D24E | 2.38 |
| P5D | 3.36 |
| V20F | 2.31 |
| P12Y | 1.96 |
| F15K | 3.54 |
| D10Y | 1.89 |
| E8C | 2.2 |
| I2K | 2.89 |
| E4C | 2.05 |
| D10C | 2.08 |
| P5M | 1.76 |
| V20S | 3.77 |
| G7K | 2.94 |
| F15V | 3.97 |
| A22V | 1.95 |
| A6M | 2.63 |
| S17E | 3.73 |
| D24W | 2.4 |

| Variant | protein stability index |
| --- | --- |
| I2W | 2.38 |
| A6D | 3.7 |
| N11E | 3.33 |
| P12Q | 3.73 |
| A22H | 2.78 |
| V20E | 4.03 |
| V20Y | 2.44 |
| L23V | 3.1 |
| A22N | 3.18 |
| P12D | 3.4 |
| I2A | 3.71 |
| G7T | 3.08 |
| G7I | 2.84 |
| I3C | 3.2 |
| D10Q | 2.49 |
| D24V | 2.33 |
| N11T | 2.64 |
| T16L | 1.99 |
| L23M | 3.26 |
| R14T | 2.96 |
| L13P | 3.6 |
| T16N | 3.39 |
| L23Y | 3.29 |
| T16G | 3.15 |
| L23H | 3.81 |
| A6T | 2.61 |

| Variant | protein stability index |
| --- | --- |
| A22F | 2.03 |
| L13E | 4.12 |
| N11H | 2.47 |
| S9I | 2.78 |
| E4M | 2.1 |
| P12G | 2.68 |
| T16M | 2 |
| S9H | 3.17 |
| L23P | 4.17 |
| T16P | 3 |
| G7V | 2.76 |
| L23D | 4.53 |
| E4I | 1.72 |
| E8V | 2.66 |
| G7H | 2.73 |
| P5H | 2.83 |
| V21L | 2.89 |
| P12H | 2.61 |
| T1A | 2.45 |
| F15P | 3.9 |
| V20D | 4.38 |
| N11L | 2.42 |
| V20Q | 3.91 |
| E4T | 2.34 |
| N11F | 1.66 |
| D10S | 2.72 |

| Variant | protein stability index |
| --- | --- |
| E8S | 3.08 |
| T1E | 2.68 |
| F15I | 3.72 |
| D24G | 2.51 |
| D10W | 2.85 |
| P5A | 2.37 |
| T1I | 2.2 |
| S9Y | 2.48 |
| D24C | 1.35 |
| A22M | 2.26 |
| T1M | 1.68 |
| A6F | 2.52 |
| E8T | 2.61 |
| N11I | 2.42 |
| T1R | 2.32 |
| S17Y | 2.15 |
| I2H | 3.18 |
| S17N | 2.53 |
| I3Q | 3.45 |
| S17L | 3.12 |
| I2Q | 3.22 |
| P12W | 2.14 |
| L13V | 3.01 |
| I3E | 4.4 |
| T16C | 1.91 |
| I2T | 3.21 |

| Variant | protein stability index |
| --- | --- |
| D24I | 1.33 |
| I3D | 4.07 |
| P12K | 2.61 |
| V21E | 4.5 |
| I2P | 3.9 |
| S9F | 2.65 |
| L19S | 4.77 |
| V21S | 3.51 |
| A6K | 2.98 |
| P12V | 2.53 |
| E8D | 2.88 |
| P5F | 1.53 |
| I3S | 4.07 |
| R14G | 3.25 |
| F15N | 4.36 |
| P5S | 2.33 |
| A22P | 3.58 |
| A22Y | 2.45 |
| N11S | 2.6 |
| I2N | 3.9 |
| V20I | 2.73 |
| V20G | 3.76 |
| D24S | 2.06 |
| E4K | 2.19 |
| G18N | 2.99 |
| S9A | 2.57 |

| Variant | protein stability index |
| --- | --- |
| A22G | 2.85 |
| T1P | 3.06 |
| L19K | 4.27 |
| R14W | 2.03 |
| S9L | 2.38 |
| P12T | 2.93 |
| I3H | 3.9 |
| N11P | 2.27 |
| I2L | 3.48 |
| S9G | 2.75 |
| R14H | 3.91 |
| A22K | 3.21 |
| V20P | 4.23 |
| S17V | 1.73 |
| T16K | 3.02 |
| N11K | 2.86 |
| S9M | 3.16 |
| V21N | 3.63 |
| P5G | 2.78 |
| L23N | 4.1 |
| P5L | 2.76 |
| I2E | 3.86 |
| F15G | 4.03 |
| N11M | 2.21 |
| P12S | 3.13 |
| I3N | 3.51 |

| Variant | protein stability index |
| --- | --- |
| E4S | 2.89 |
| L19P | 3.72 |
| R14V | 2.86 |
| V21Q | 3.71 |
| V20K | 3.75 |
| P12C | 2.52 |
| E8P | 2.15 |
| E8I | 2.02 |
| I3G | 3.7 |
| L13W | 3.14 |
| A22I | 1.61 |
| L19M | 2.83 |
| T1Y | 2.08 |
| F15E | 4.63 |
| R14Y | 2.21 |
| G18H | 2.21 |
| S17P | 2.99 |
| V21H | 3.27 |
| T1Q | 2.96 |
| T1V | 2.23 |
| P12A | 2.76 |
| D10H | 2.75 |
| I2Y | 2.32 |
| P12R | 2.65 |
| V20M | 2.59 |
| I3L | 2.76 |

| Variant | protein stability index |
| --- | --- |
| S17W | 2.14 |
| F15W | 2.2 |
| D24M | 1.98 |
| L19F | 2.38 |
| G7R | 3.54 |
| R14L | 2.96 |
| D10F | 2.65 |
| L23W | 2.97 |
| V20C | 3.38 |
| G7L | 2.67 |
| E4F | 1.81 |
| S17A | 2.51 |
| L13S | 3.86 |
| T16H | 2.23 |
| R14I | 2.46 |
| G7W | 2.26 |
| T16W | 1.76 |
| T16R | 3.35 |
| L23A | 4.1 |
| V21A | 3.36 |
| G18E | 3.15 |
| S17G | 2.9 |
| L23E | 4.4 |
| D10N | 3.61 |
| D24T | 2.2 |
| I2R | 3.67 |

| Variant | protein stability index |
| --- | --- |
| E8Q | 2.62 |
| I3M | 3.23 |
| L23K | 4.07 |
| D10V | 2 |
| R14E | 4.21 |
| L13G | 3.14 |
| T1G | 3.82 |
| G18L | 1.55 |
| E8W | 1.5 |
| G7Y | 2.45 |
| S17R | 2.05 |
| L19H | 3.59 |
| N11V | 2.33 |
| N11W | 1.63 |
| D24P | 2.31 |
| I2S | 3.48 |
| L13Y | 3.17 |
| E8R | 3.15 |
| E4R | 2.94 |
| E8Y | 1.99 |
| G18F | 1.41 |
| T16Y | 1.74 |
| D24K | 2.19 |
| I3A | 4.03 |
| V21I | 2.78 |
| I2C | 2.84 |

| Variant | protein stability index |
| --- | --- |
| V21T | 3.67 |
| T1D | 3.21 |
| V20T | 3.82 |
| E8M | 2.54 |
| G18T | 2.51 |
| P5K | 2.79 |
| P5N | 2.91 |
| E4P | 3.15 |
| V20W | 2.68 |
| G18W | 2.09 |
| L13M | 3.35 |
| A22T | 2.78 |
| V20R | 3.38 |
| S9P | 3.25 |
| L23C | 3.62 |

Variants of: B2
Assay: as above
Details: c terminus: a fixed tail appended

| Variant | protein stability index |
| --- | --- |
| Y1A | 5.78 |
| Y1C | 4.93 |
| Y1D | 5.55 |
| Y1E | 5.83 |
| Y1F | 2.11 |
| Y1G | 4.73 |
| Y1H | 5.57 |
